According to patent US20180036405A1 (Regeneron, published 2018):

Columns and labels:
[1] = target: T1, EGFR on A431 epidermoid carcinoma cells (human, UniProt P00533 25-1210); assay: cell-based or functional assay
[2] = target: T2, human monomeric EGFR (EGFR.mmh) (human, UniProt P00533 25-647); assay: SPR 37C, mAb captured by anti-human Fc, EGFR.mmh analyte
T2 construct: Soluble monomeric EGFR construct
Procedure: (§1) Different concentrations of human monomeric (EGFR.mmh; SEQ ID NO:386) and dimeric (EGFR.mFc; SEQ ID NO:387) proteins were injected over the anti-EGFR monoclonal antibody captured surface at a flow rate of 50 μI/min. Antibody-antigen association was monitored for 4-5 minutes while dissociation of antigen from the captured monoclonal antibody surface was monitored for 10 min. Kinetic association (kₐ) and dissociation (kd) rate constants were determined by processing and fitting the data to a 1:1 binding model using Scrubber 2.0 curve fitting software.

[3] = target: T1, EGFR on A431 epidermoid carcinoma cells; assay: cell-based or functional assay; remark: listed apart in the source
[4] = target: T3, human dimeric EGFR (EGFR.mFc) (human); assay: SPR 37C, mAb captured by anti-human Fc, EGFR.mFc analyte
T3 construct: Soluble dimeric EGFR construct
Procedure: as §1

| Binder | IC50 of A431 Proliferation [1] [Molar] | Kd [2] [nM] | koff [2] [s⁻¹] | kon [2] [M⁻¹ s⁻¹] | t1/2 [2] [h] | ADCC EC50 [3] [Molar] | Kd [4] [nM] | koff [4] [s⁻¹] | kon [4] [M⁻¹ s⁻¹] | t1/2 [4] [h] | Maximum Cell Killing (%) [3] [%] |
| --- | --- | --- | --- | --- | --- | --- | --- | --- | --- | --- | --- |
| H1H103N (antibody, human IgG1, V domains shown, Tested in human IgG1 Fc format (H1H); also called H1M103N) VH: EVQLVESGGGLVQPGGSLRLSCAASGFTFSSYDMHWVRQTTGKGLEWVSGIGTAGDTYYPGSVKGRFTISREDAKNSLYLQMNSLRAGDTAVYYCARVGYDWNFVAFDYWGQGTLVTVSS VL: DIVMTQSPLSLPVTPGEPASISCRSSQSLLHSNGYNYLDWYLQKPGQSPQLLIHLVSIRASGVPDRFSGSGSGTDFTLKISRVEAEDVGIYYCMQALQTPWTFGQGTKVEIK | 3.89e-09 | 13.9 | 0.00139 | 100000 | 0.133 | 7.25e-13 | 0.109 | 4.19e-05 | 383000 | 4.6 | 17 |
| H1H134P (antibody, human IgG1, V domains shown, Human IgG1 Fc (H1H)) VH: EVQLVESGGGLVQPGGSLRLSCAASGFTFDDFAIHWVRQTPGRGLEWVSGLSWNSAYIAYADSVKGRFTISRDNAKDSLYLQMNSLRPEDTALYYCVKDTDIHLWFLFDFWGQGTLVTVSS VL: not shown | 1.84e-09 | 0.848 | 0.000789 | 930000 | 0.25 | 4.61e-11 | 0.00799 | 2.47e-05 | 3.09e+06 | 7.8 | 33 |
| H1H102N (antibody, human IgG1, V domains shown, Tested in human IgG1 Fc format (H1H); also called H1M102N) VH: QVQLQESGPGLVQPSQTLSLTCTVSGGSVSSGDYYWSWIRQHPGKGLEWIGHIYYSGITYYNPSLESRVTITLDTSKNQFSLNLRSVTAADTAVHYCARTAIIGTMDNWGRGTLVTVSS VL: EIVMTQSPATLSVSPGERATLSCRASQSVSSNLAWYQQKPGQAPRLLIYDASTRATGFPARFSGSGSGTEFTLTISSLQSEDFAVYYCQQYNTWWTFGQGTKVEIK | 2.88e-10 | 5.67 | 0.000943 | 166000 | 0.2 | 4.39e-13 | 0.0651 | 5.62e-05 | 863000 | 3.43 | 48 |
| H1H116N (antibody, human IgG1, V domains shown, Tested in human IgG1 Fc format (H1H); also called H1M116N) VH: QVQLQESGPGLVKPSQTLSLTCTVSGGSVSSGDYYWSWIRQHPGKGLDWIGHIYYSGSTYYNPSLKSRVTISLDTSKNQFSLKLNSVTAADTAVYYCARTAITGTMDYWGQGTLVTVSS VL: EIVMTQSPATLSVSAGERATLSCRASQSVSSNLAWFQQKPGQAPRLLIYDASTRATGIPARFSGSGSGTEFTLIISSLQSEDFALYYCQQYNSWWTFGQGTKVEIK | 2.24e-10 | 5.27 | 0.00284 | 539000 | 0.0667 | 2.51e-13 | 0.0203 | 3.16e-05 | 1.55e+06 | 6.1 | 29 |
| H1H143P (antibody, human IgG1, V domains shown, Human IgG1 Fc (H1H)) VH: QVQLQESGPGLVMPSQTLSLTCTVSGGSINSGDYYWNWIRQHPGKGLEWIGYIYYSEISYHNPSLKSRVTTSIDTSTNQFSLKLSSVTAADTAVYYCARDRVELRAFDIWGQGTMVTVSS VL: DIQMTQSPSSLSASVGDRVTITCQASQDISNYLNWYQQKPGKAPKLLIYDASNLETGVPSRFSGSGSGTDFTFTISSLQPEDIATYYCQHYDSLPLTFGQGTRLEIK | 9.97e-11 | 5.71 | 0.000727 | 127000 | 0.267 | – | 0.0354 | 1.35e-05 | 381000 | 14.3 | 13 |

Second part, led by results:

| IC50 of A431 Proliferation [1] [Molar] | Kd [2] [nM] | koff [2] [s⁻¹] | kon [2] [M⁻¹ s⁻¹] | t1/2 [2] [h] | ADCC EC50 [3] [Molar] | Kd [4] [nM] | koff [4] [s⁻¹] | kon [4] [M⁻¹ s⁻¹] | t1/2 [4] [h] | Binder | Maximum Cell Killing (%) [3] [%] |
| --- | --- | --- | --- | --- | --- | --- | --- | --- | --- | --- | --- |
| 1.39e-11 | 5.25 | 0.000967 | 184000 | 0.2 | 4.57e-11 | 0.0217 | 1.94e-05 | 894000 | 9.93 | H1H144P (antibody, human IgG1, V domains shown, Human IgG1 Fc (H1H)) VH: QVQLQESGPGLVMPSQTLSLTCTVSGGSINSGDYYWNWIRQHPGKGLEWIGYIYYSEISYHNPSLKSRVTTSIDTSTNQFSLKLSSVTAADTAVYYCARDRVELRAFDIWGQGTMVTVSS VL: DIQMTQSPSSLSASVGDRVTITCQASQDISNYLNWYQQKPGKAPKLLIYDASNLETGVPSRFSGSGSGTDFTFTISSLQPEDIATYYCQHYDSLPLTFGQGTRLEIK | 43 |
| 1.41e-10 | 1.02 | 0.000405 | 396000 | 0.483 | 2.78e-12 | 0.00831 | 7.51e-06 | 903000 | 25.6 | H1H141P (antibody, human IgG1, V domains shown, Human IgG1 Fc (H1H)) VH: QVQLQESGPGLVKPSQTLSLTCTVSGGSISSGDYYWNWIRQYPGKGLELIGYIYYSGITYYNPSLKSRLTISLDTSKNQFSLKLSSVTAADTAVYYCARDRVELRAFDIWGQGTMVTVSS VL: DIQMTQSPSSLSASVGDRVTITCQASQDISNYLNWYQQKPGKAPKLLINDASNLETGVPSRFSGSGSGTDFTFTISSLQPEDIATYYCQHYDSLPLTFGQGTRLEIK | 41 |
| 9.77e-11 | 5.76 | 0.000376 | 65400 | 0.517 | – | 0.0664 | 1.26e-05 | 190000 | 15.2 | H1H147P (antibody, human IgG1, V domains shown, Human IgG1 Fc (H1H)) VH: EVQLVESGPGLVQPSQTLSLTCTVSGGSINSGDFYWSWIRQHPGKGLEWIGHIYYSGITYYSPSLKSRLTISVDTSKNQFSLKLSSVTAADTAVYYCARKRVTGEVDYWGQGTLVTVSS VL: DIQMTQSPSSLSASVGDRITITCQANQDINNYLNWYQQKPGKAPKLLISDASNLETGVPSRFSGSGSGTDFTFTISSLQPEDIATYYCQQYDNLPPTFGQGTRLEIKR | 13 |
